The values that follow come from the supplement of paper PMC10567573.

B1: TRIM63 (parent)
chain: QRITQEQEKKLSFIEALIQQYQEQ
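Also: lentivirally expressed fusions sorted by FACS into six bins by GFP to DsRed ratio, PSI derived from sequencing read proportions per bin multiplied by bin number.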

Variants of B1 are the subject of the series. Nature of the series: protein stability index of a GFP-peptide fusion (GPS, HEK-293T) (PSI 1-6); higher = more stable. To be noted: c terminus: a fixed tail appended.
QRITQEQEKKLSFTEALIQQYQEQ [I14T]: the protein stability index amounted to 2.35. QRITQEQEKKLSFQEALIQQYQEQ [I14Q]: the protein stability index amounted to 3.22.

For QRITQEQEKKLSFLEALIQQYQEQ [I14L], the protein stability index stood at 2.23. To QRITQEQEKKLSFCEALIQQYQEQ [I14C] belongs 2.02. To QRITQEQEKKLSFAEALIQQYQEQ [I14A] belongs 2.41; to QRITQEQEKKLSFYEALIQQYQEQ [I14Y], 2.87; to QRITQEQEKKLSFMEALIQQYQEQ [I14M], 2.79. Then QRITQEQEKKLSFDEALIQQYQEQ [I14D], with 4.69. With QRITQEQEKKLSFHEALIQQYQEQ [I14H], the protein stability index came out at 3.2.

For QRITQEQEKKLSFNEALIQQYQEQ [I14N], the protein stability index is 4.7. For the variant QRITQEQEKKLSFGEALIQQYQEQ [I14G], the protein stability index was 4.31. Then QRITQEQEKKLSFSEALIQQYQEQ [I14S], with 3.48; and QRITQEQEKKLSFEEALIQQYQEQ [I14E], with 2.77; and QRITQEQEKKLSFREALIQQYQEQ [I14R], with 3.15. Then QRITQEQEKKLSFFEALIQQYQEQ [I14F], with 3; and QRITQEQEKKLSFPEALIQQYQEQ [I14P], with 4.55. To QRITQEQEKKLSFIEAEIQQYQEQ [L17E] belongs 4.81. As for QRITQEQEKKLSFIEADIQQYQEQ [L17D], the protein stability index is 4.58. QRITQEQEKKLSFIEAGIQQYQEQ [L17G]: the protein stability index was found to be 4.54. Take QRITQEQEKKLSFIEACIQQYQEQ [L17C]: the protein stability index worked out at 2.23. As to QRITQEQEKKLSFIEAFIQQYQEQ [L17F], the protein stability index was found to be 2.62. To QRITQEQEKKLSFIEAAIQQYQEQ [L17A] belongs 3.42. To QRITQEQEWKLSFIEALIQQYQEQ [K9W] belongs 3.8; to QRITQEQETKLSFIEALIQQYQEQ [K9T], 2.41.

On to QRITQEQESKLSFIEALIQQYQEQ [K9S], for which the protein stability index stood at 2.7.

Turning to QRITQEQEEKLSFIEALIQQYQEQ [K9E], the protein stability index came to 3.27. To QRITQEQEFKLSFIEALIQQYQEQ [K9F] belongs 2.78; to QRITQEQEDKLSFIEALIQQYQEQ [K9D], 2.77. Then QRITQEQEVKLSFIEALIQQYQEQ [K9V], with 2.22; and QRITQEQEGKLSFIEALIQQYQEQ [K9G], with 2.78; and QRITQEQEQKLSFIEALIQQYQEQ [K9Q], with 2.82. On to QRITQEQEHKLSFIEALIQQYQEQ [K9H], for which the protein stability index was 2.6.

Regarding QRITQEQEIKLSFIEALIQQYQEQ [K9I], the protein stability index worked out at 1.79.

For QRITQEQERKLSFIEALIQQYQEQ [K9R], the protein stability index turned out to be 2.74. Then QRITQEQEYKLSFIEALIQQYQEQ [K9Y], with 2.2; and QRITQEQEAKLSFIEALIQQYQEQ [K9A], with 2.6. Regarding QRITQEQEPKLSFIEALIQQYQEQ [K9P], the protein stability index came to 3.01. As for QRITQEQEMKLSFIEALIQQYQEQ [K9M], the protein stability index turned out to be 2.44. To QRITQEQECKLSFIEALIQQYQEQ [K9C] belongs 2.29; to QRITQEQELKLSFIEALIQQYQEQ [K9L], 1.88. For the variant QRITQWQEKKLSFIEALIQQYQEQ [E6W], the protein stability index amounted to 1.43.

For the variant QRITQVQEKKLSFIEALIQQYQEQ [E6V], the protein stability index worked out at 1.81. To QRITQTQEKKLSFIEALIQQYQEQ [E6T] belongs 1.7; to QRITQEQEKKLSVIEALIQQYQEQ [F13V], 3.93; to QRITQEQEKKLSCIEALIQQYQEQ [F13C], 3.56. For QRITQEQEKKLSRIEALIQQYQEQ [F13R], the protein stability index amounted to 3.91. As for QRITQEQEKKLSKIEALIQQYQEQ [F13K], the protein stability index came to 3.59. As for QRITQEQEKKLSTIEALIQQYQEQ [F13T], the protein stability index came out at 4.78. Then QRITQEQEKKLSWIEALIQQYQEQ [F13W], with 1.68. On to QRITQEQEKKLSHIEALIQQYQEQ [F13H], for which the protein stability index was found to be 4.14. To QRITQEQEKKLSLIEALIQQYQEQ [F13L] belongs 2.72. Then QRITQEQEKKLSEIEALIQQYQEQ [F13E], with 4.78.

Regarding QRITQEQEKKLSNIEALIQQYQEQ [F13N], the protein stability index is 4.66. Then QRITQEQEKKLSDIEALIQQYQEQ [F13D], with 4.83; and QRITQEQEKKLSGIEALIQQYQEQ [F13G], with 4.6; and QRITQEQEKKLSAIEALIQQYQEQ [F13A], with 4.47. To QRITQEQEKKLSPIEALIQQYQEQ [F13P] belongs 4.68; to QRITQEQEKKLSQIEALIQQYQEQ [F13Q], 4.33; to QRITQEQEKKLSSIEALIQQYQEQ [F13S], 4.52. To QRITQEQEKKLSMIEALIQQYQEQ [F13M] belongs 3.25; to QRITQEQEKKLSYIEALIQQYQEQ [F13Y], 2.62. As for QRITQEQEKKLSIIEALIQQYQEQ [F13I], the protein stability index is 2.62. Then QRITQEQCKKLSFIEALIQQYQEQ [E8C], with 2.09; and QRITQEQAKKLSFIEALIQQYQEQ [E8A], with 2.18.

Regarding QRITQEQIKKLSFIEALIQQYQEQ [E8I], the protein stability index came to 1.9. On to QRITQEQLKKLSFIEALIQQYQEQ [E8L], for which the protein stability index was 1.86. As to QRITQEQKKKLSFIEALIQQYQEQ [E8K], the protein stability index is 2.12. Then QRITQEQRKKLSFIEALIQQYQEQ [E8R], with 1.56. Then QRITQEQPKKLSFIEALIQQYQEQ [E8P], with 1.66; and QRITQEQYKKLSFIEALIQQYQEQ [E8Y], with 1.82; and QRITQEQGKKLSFIEALIQQYQEQ [E8G], with 1.87. QRITQEQFKKLSFIEALIQQYQEQ [E8F]: the protein stability index was 2.03.

For QRITQEQNKKLSFIEALIQQYQEQ [E8N], the protein stability index was 1.97. Regarding QRITQEQTKKLSFIEALIQQYQEQ [E8T], the protein stability index came to 2.28. For QRITQEQQKKLSFIEALIQQYQEQ [E8Q], the protein stability index is 2.12.

As to QRITQEQMKKLSFIEALIQQYQEQ [E8M], the protein stability index amounted to 1.62.

On to QRITQEQSKKLSFIEALIQQYQEQ [E8S], for which the protein stability index worked out at 2.17. To QRITQEQDKKLSFIEALIQQYQEQ [E8D] belongs 1.95; to QRITQEQHKKLSFIEALIQQYQEQ [E8H], 1.75; to QRITQEQEKKLSFIHALIQQYQEQ [E15H], 2.28. To QRITQEQEKKLSFIGALIQQYQEQ [E15G] belongs 2.44; to QRITQEQEKKLSFIFALIQQYQEQ [E15F], 1.92; to QRITQEQEKKLSFILALIQQYQEQ [E15L], 2.56. To QRITQEQEKKLSFIDALIQQYQEQ [E15D] belongs 2.19; to QRITQEQEKKLSFIWALIQQYQEQ [E15W], 2.5; to QRITQEQEKKLSFISALIQQYQEQ [E15S], 2.12. For the variant QRITQEQEKKLSFIAALIQQYQEQ [E15A], the protein stability index worked out at 2.82. To QRITQEQEKKLSFIPALIQQYQEQ [E15P] belongs 3.48; to QRITQEQEKKLSFIIALIQQYQEQ [E15I], 1.6. Then QRITQEQEKKLSFIYALIQQYQEQ [E15Y], with 2.34; and QRITQEQEKKLSFITALIQQYQEQ [E15T], with 2.32.

In the case of QRITQEQEKKLSFIKALIQQYQEQ [E15K], the protein stability index was found to be 2.11. To QRITQEQEKKLSFINALIQQYQEQ [E15N] belongs 2.04.

For QRITQEQEKKLSFIQALIQQYQEQ [E15Q], the protein stability index was found to be 2.23.
